Two molecules from publication PMC10801921 can be followed below.

Changes are numbered by the printed parent chain.

In data set [1] the target is T1, ARR1 DBD (crystal) (Arabidopsis thaliana, UniProt Q940D0 221-301).
T1 sequence: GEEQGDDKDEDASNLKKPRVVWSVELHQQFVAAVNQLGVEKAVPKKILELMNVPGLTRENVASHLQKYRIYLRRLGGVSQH
Briefly: X-ray crystallography.

In data set [2] the target is T2, ARR1 RD-DBD R294A (Arabidopsis thaliana, UniProt Q940D0 1-301, R294A).
T2 sequence: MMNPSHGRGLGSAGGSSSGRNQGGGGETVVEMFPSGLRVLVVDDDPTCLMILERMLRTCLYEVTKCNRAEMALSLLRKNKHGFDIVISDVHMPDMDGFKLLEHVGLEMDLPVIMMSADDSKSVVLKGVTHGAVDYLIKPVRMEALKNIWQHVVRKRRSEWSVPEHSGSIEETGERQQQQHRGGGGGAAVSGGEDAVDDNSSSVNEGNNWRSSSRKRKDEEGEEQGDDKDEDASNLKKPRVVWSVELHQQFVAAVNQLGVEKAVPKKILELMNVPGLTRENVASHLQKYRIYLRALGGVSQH
In words: BLI.

The target of data set [3] is T3, ARR1 RD-DBD D89E (Arabidopsis thaliana, UniProt Q940D0 1-301, D89E).
T3 sequence: T2 sequence with D89E, A294R
Briefly: BLI.

B1: DNA-TCS 25 bp (crystal) (dsDNA)
DNA 1: AATCCAGATTAATCTAATCTAATCC
DNA 2: GGATTAGATTAGATTAATCTGGATT
With B1, the binding result in data set [1] is “binds”.

B2: DNA-TCS 40 bp (ARR6-40) (dsDNA)
DNA 1: GGATTAGATTAGATTAATCTGGATTAGATTAATCTAGATT
DNA 2: AATCTAGATTAATCTAATCCAGATTAATCTAATCTAATCC
B2: the binding result in data set [2] and in data set [3] was “binds” each time.
